What was measured:
[1] = target: hemagglutinin (HA) of A/Vietnam/1194/04 (H5N1) on MLV(HA) pseudotyped virions (influenza A virus A/Vietnam/1194/04 (H5N1))
[2] = substrate: F protein of RSV (Long strain) (human respiratory syncytial virus, Long strain) (UniProt P12568); test: cell-based or functional assay
F protein of RSV (Long strain) (human respiratory syncytial virus, Long strain), sequence (P12568 26-574): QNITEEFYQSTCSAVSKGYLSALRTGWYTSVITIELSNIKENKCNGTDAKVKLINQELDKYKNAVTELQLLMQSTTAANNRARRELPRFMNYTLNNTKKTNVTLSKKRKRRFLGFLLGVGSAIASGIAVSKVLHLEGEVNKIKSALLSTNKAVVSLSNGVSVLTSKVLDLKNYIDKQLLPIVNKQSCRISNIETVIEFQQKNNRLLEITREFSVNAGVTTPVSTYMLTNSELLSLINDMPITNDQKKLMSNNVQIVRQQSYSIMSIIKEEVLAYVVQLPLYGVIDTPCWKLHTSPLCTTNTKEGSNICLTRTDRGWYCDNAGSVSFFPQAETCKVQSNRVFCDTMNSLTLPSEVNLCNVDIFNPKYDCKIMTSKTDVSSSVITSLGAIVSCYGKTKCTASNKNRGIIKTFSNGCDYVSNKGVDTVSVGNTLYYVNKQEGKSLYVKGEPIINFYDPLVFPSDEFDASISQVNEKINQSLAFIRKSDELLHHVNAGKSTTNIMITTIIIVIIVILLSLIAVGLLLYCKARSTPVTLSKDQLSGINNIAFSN

Binder	IC50 (read off the curve) [1]	IC50, neutralization of RSV infection, Long strain [2]
203-H9 (VHH) VHH: EVQLVESGGGLVQPGGSLRLSCTGSGFTFSSYWMDWVRQTPGKDLEYVSGISPSGGNTDYADSVKGRFTISRDNAKNTLYLQMNSLQPEDTALYYCRRSLTLTDSPDLRSQGTQVTVSS	8 nM	
202-C8 (VHH) VHH: EVQLVESGGGLVQPGGSLRLSCTGSGFTFSSYWMDWVRQTPGKDLEYVSGISPSGSNTDYADSVKGRFTISRDNAKNTLYLQMNSLKPEDTALYYCRRSLTLTDSPDLRSQGTQVTVSS	10 nM	
203-B12 (VHH) VHH: EVQLVESGGGLVQPGGSLRLSCAASGFTFSSYAMGWVRRAPGEGLEWVSSISSGGALPTYADSVKGRFTISRDNVKNTLYLQMNSLKPEDTAVYSCEKYAGSMWTSERDAWGQGTQVTVSS	10 nM	
building block of RSV407 (monovalent) (VHH) VHH: EVQLVESGGGLVQAGGSLSISCAASGGSLSNYVLGWFRQAPGKEREFVAAINWRGDITIGPPNVEGRFTISRDNAKNTGYLQMNSLAPDDTAVYYCGAGTPLNPGAYIYDWSYDYWGRGTQVTVSS		50 to 100 nM

Reference: patent US20160280799A1
